Here are results for ten molecules from patent US11278600B2, “Human alpha-galactosidase variants” (Codexis, Inc., priority 2014, dated 2022).

Common to all, as to assay type: biochemical
Data set [1] in a line: HTP-analysis of supernatants pretreated with bovine serum (MUGal hydrolysis). The following applies: activity of the variant/activity of Rd3BB (SEQ ID NO: 13), yeast culture supernatant. In a few lines:
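Yeast INVSc1 culture supernatants containing secreted GLA variants were mixed with bovine serum (20:80) and held 1 h at 37° C. Serum-treated samples then reacted with MUGal (4 mM stock) in citrate/McIlvaine buffer (pH 4.3/4.8) for 180 min at 37° C., were quenched with sodium carbonate, and read by fluorescence (Ex 355, Em 448 nm).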

A short description of data set [2]: HTP-analysis of supernatants pretreated with acid (MUGal hydrolysis). The following applies: challenge at pH 4.0; activity of the variant/activity of Rd3BB (SEQ ID NO: 13); yeast culture supernatant. In a few lines:
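Fluorescence of MUGal hydrolysis (Ex. 355 nm, Em. 448 nm) is read after sodium carbonate quench. The enzyme source is INVSc1 yeast culture supernatant, first exposed to pH 3.3-4.3 McIlvaine buffer at 37° C. for 1-3 h, then reacted at pH 4.8 for 30-180 minutes.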

Data set [3] is described as follows: HTP-analysis of supernatants pretreated with base (MUGal hydrolysis). The settings on record: challenge at pH 8.2; activity of the variant/activity of Rd3BB (SEQ ID NO: 13); yeast culture supernatant. In a few lines:
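GLA variants secreted from yeast INVSc1; culture supernatants pre-incubated with McIlvaine buffer pH 7.0–8.2 or 200 mM bicarbonate pH 9.1–9.7 at 37° C. for 1–18 h. Residual activity: MUGal (4 mM stock) hydrolysis at pH 4.3–4.8, 37° C., 30–180 min, carbonate quench; fluorescence Ex 355/Em 448 nm.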

A short description of data set [4]: HTP-analysis of yeast culture supernatants, no challenge (MUGal hydrolysis). The settings on record: activity of the variant/activity of Rd3BB (SEQ ID NO: 13), yeast culture supernatant. In a few lines:
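GLA variants expressed in yeast INVSc1, secreted into SD-Ura broth over 66-84 h at 30° C; clarified supernatants tested without challenge. Supernatant mixed with McIlvaine buffer pH 4.8 and 2 mM MUGal (citrate/KCl, pH 4.6), 37° C for 30-180 min, carbonate-quenched, fluorescence Ex 355/Em 448 nm.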

Positions count from the first letter of the chain named.

B1: 337 (protein)
chain: LDNGLARTPTMGWLHWERFMCNLDCQEEPDSCISEKLFMEMAERMVSEGWKDAGYEYLCIDDCWMAPQRDSEGRLQADPQRFPHGIRQLANYVHSKGLKLGIYADVGNKTCAGFPGSFGYYDIDAQTFADWGVDLLKFDGCYCDSLENLADGYKHMSLALNRTGRSIVYSCEWPLYMWPFQKPNYTEIRQYCNHWRNFADIDDSWASIKSILDWTSFNQERIVDVAGPGGWNDPDMLVIGNFGLSWDQQVTQMALWAIMAAPLFMSNDLRHISPQAKALLQDKDVIAINQDPLGKQGYQLRKGDNFEVWERPLSGLAWAVAIINRQEIGGPRSYTIAVASLGDGVACNPACFITQLLPVKRKLGFYNWTSRLKSHINPTGTVLLQLENTMQMSLKDLL
modifications: Synthetic Polypeptide sequence of Variant No. 337 of mature Human GLA
Take B1: the “Relative Activity of GLA Variants After Challenge with Serum” value (shortened to “Relative Activity … with Serum”) in data set [1] is given as “++ (++ = >1.5 to 2.5 relative activity over Rd3BB (SEQ ID NO: 13))”. The “Relative Activity of GLA Variants After Challenge at pH 4.0” value (shortened to “Relative Activity … at pH 4.0”) in data set [2] is listed as “++ (++ = >1.5 to 2.5 relative activity over Rd3BB (SEQ ID NO: 13))”. For the same molecule, in data set [3], the “Relative Activity of GLA Variants After Challenge at pH 8.2” value (from here on “Relative Activity … at pH 8.2”) is reported as “++ (++ = >1.5 to 2.5 relative activity over Rd3BB (SEQ ID NO: 13))”. In data set [4], the “Relative Activity of GLA Variants After No Challenge (NC)” value is reported as “+ (+ = 0.5 to 1.5 relative activity over Rd3BB (SEQ ID NO: 13))”.

B2: 342 (protein)
chain: B1 chain with K96I, F217R, L316D, A337P, D343K
modifications: Synthetic Polypeptide sequence of Variant No. 342 of mature Human GLA
Take B2: the “Relative Activity … with Serum” value in data set [1] was “+++ (+++ = >2.5 relative activity over Rd3BB (SEQ ID NO: 13))”. For the same molecule, the “Relative Activity … at pH 4.0” value in data set [2] is given as “+++ (+++ = >2.5 relative activity over Rd3BB (SEQ ID NO: 13))”. In addition, the “Relative Activity … at pH 8.2” value in data set [3] is “+++ (+++ = >2.5 relative activity over Rd3BB (SEQ ID NO: 13))”. In data set [4], the “Relative Activity of GLA Variants After No Challenge (NC)” value is given as “++ (++ = >1.5 to 2.5 relative activity over Rd3BB (SEQ ID NO: 13))”.

B3: 344 (protein)
chain: B1 chain with K96I, F217R, D343K, K362Q
modifications: Synthetic Polypeptide sequence of Variant No. 344 of mature Human GLA
For B3, the “Relative Activity … with Serum” value in data set [1] is reported as “++ (++ = >1.5 to 2.5 relative activity over Rd3BB (SEQ ID NO: 13))”. In addition, the “Relative Activity … at pH 4.0” value in data set [2] was “+ (+ = 0.5 to 1.5 relative activity over Rd3BB (SEQ ID NO: 13))”. Besides, the “Relative Activity … at pH 8.2” value in data set [3] was “+ (+ = 0.5 to 1.5 relative activity over Rd3BB (SEQ ID NO: 13))”. Moreover, in data set [4], the “Relative Activity of GLA Variants After No Challenge (NC)” value is given as “+ (+ = 0.5 to 1.5 relative activity over Rd3BB (SEQ ID NO: 13))”.

B4: 339 (protein)
chain: B1 chain with K96I, F217R, K302Q, D343K, A350G, K362Q
modifications: Synthetic Polypeptide sequence of Variant No. 339 of mature Human GLA
B4: the “Relative Activity … with Serum” value in data set [1] is “+ (+ = 0.5 to 1.5 relative activity over Rd3BB (SEQ ID NO: 13))”. Besides, in data set [2], the “Relative Activity … at pH 4.0” value is “+ (+ = 0.5 to 1.5 relative activity over Rd3BB (SEQ ID NO: 13))”. Also, the “Relative Activity … at pH 8.2” value in data set [3] is on record as “++ (++ = >1.5 to 2.5 relative activity over Rd3BB (SEQ ID NO: 13))”. For the same molecule, the “Relative Activity of GLA Variants After No Challenge (NC)” value in data set [4] is on record as “+ (+ = 0.5 to 1.5 relative activity over Rd3BB (SEQ ID NO: 13))”.

B5: 343 (protein)
chain: B1 chain with K96I, F217R, D343K, T369S
modifications: Synthetic Polypeptide sequence of Variant No. 343 of mature Human GLA
As for B5, the “Relative Activity … with Serum” value in data set [1] was “+ (+ = 0.5 to 1.5 relative activity over Rd3BB (SEQ ID NO: 13))”. For the same molecule, the “Relative Activity … at pH 4.0” value in data set [2] is recorded as “+ (+ = 0.5 to 1.5 relative activity over Rd3BB (SEQ ID NO: 13))”. For the same molecule, the “Relative Activity … at pH 8.2” value in data set [3] is recorded as “+ (+ = 0.5 to 1.5 relative activity over Rd3BB (SEQ ID NO: 13))”. Also, the “Relative Activity of GLA Variants After No Challenge (NC)” value in data set [4] is “+ (+ = 0.5 to 1.5 relative activity over Rd3BB (SEQ ID NO: 13))”.

B6: 346 (protein)
chain: B1 chain with K96I, F217R, D247N, D343K, A350G, K362Q, T369S
modifications: Synthetic Polypeptide sequence of Variant No. 346 of mature Human GLA
In the case of B6, the “Relative Activity … with Serum” value in data set [1] is on record as “+ (+ = 0.5 to 1.5 relative activity over Rd3BB (SEQ ID NO: 13))”. Besides, the “Relative Activity … at pH 4.0” value in data set [2] is listed as “+ (+ = 0.5 to 1.5 relative activity over Rd3BB (SEQ ID NO: 13))”. For the same molecule, the “Relative Activity … at pH 8.2” value in data set [3] was “++ (++ = >1.5 to 2.5 relative activity over Rd3BB (SEQ ID NO: 13))”. In addition, in data set [4], the “Relative Activity of GLA Variants After No Challenge (NC)” value is “+ (+ = 0.5 to 1.5 relative activity over Rd3BB (SEQ ID NO: 13))”.

B7: 338 (protein)
chain: B1 chain with K96I, F217R, K302Q, D343K, A350G, K362Q
modifications: Synthetic Polypeptide sequence of Variant No. 338 of mature Human GLA
Turning to B7, in data set [1], the “Relative Activity … with Serum” value is listed as “+++ (+++ = >2.5 relative activity over Rd3BB (SEQ ID NO: 13))”. Also, in data set [2], the “Relative Activity … at pH 4.0” value is recorded as “+++ (+++ = >2.5 relative activity over Rd3BB (SEQ ID NO: 13))”. For the same molecule, the “Relative Activity … at pH 8.2” value in data set [3] is reported as “+++ (+++ = >2.5 relative activity over Rd3BB (SEQ ID NO: 13))”. In addition, the “Relative Activity of GLA Variants After No Challenge (NC)” value in data set [4] is “++ (++ = >1.5 to 2.5 relative activity over Rd3BB (SEQ ID NO: 13))”.

B8: 341 (protein)
chain: B1 chain with K96I, F217R, K302Q, D343K, T369S
modifications: Synthetic Polypeptide sequence of Variant No. 341 of mature Human GLA
Regarding B8, in data set [1], the “Relative Activity … with Serum” value is “+ (+ = 0.5 to 1.5 relative activity over Rd3BB (SEQ ID NO: 13))”. Moreover, in data set [2], the “Relative Activity … at pH 4.0” value is “+ (+ = 0.5 to 1.5 relative activity over Rd3BB (SEQ ID NO: 13))”. Also, the “Relative Activity … at pH 8.2” value in data set [3] is “+ (+ = 0.5 to 1.5 relative activity over Rd3BB (SEQ ID NO: 13))”. Moreover, the “Relative Activity of GLA Variants After No Challenge (NC)” value in data set [4] was “− (− = <0.5 relative activity to Rd3BB (SEQ ID NO: 13))”.

B9: 340 (protein)
chain: B1 chain with K96I, F217R, K302Q, D343K, A350G, K362Q, T369S
modifications: Synthetic Polypeptide sequence of Variant No. 340 of mature Human GLA
For B9, the “Relative Activity … with Serum” value in data set [1] is reported as “+ (+ = 0.5 to 1.5 relative activity over Rd3BB (SEQ ID NO: 13))”. Also, the “Relative Activity … at pH 4.0” value in data set [2] is “+ (+ = 0.5 to 1.5 relative activity over Rd3BB (SEQ ID NO: 13))”. Moreover, in data set [3], the “Relative Activity … at pH 8.2” value is given as “+ (+ = 0.5 to 1.5 relative activity over Rd3BB (SEQ ID NO: 13))”. The “Relative Activity of GLA Variants After No Challenge (NC)” value in data set [4] was “+ (+ = 0.5 to 1.5 relative activity over Rd3BB (SEQ ID NO: 13))”.

B10: 345 (protein)
chain: LDNGLARTPTMGWLHWERFMCNLDCQEEPDSCISEKLFMEMAERMVSEGWKDAGYEYLCIDDCWMAPQRDSEGRLQADPQRFPHGIRQLANYVHSIGLKLGIYADVGNKTCAGFPGSFGYYDIDAQTFADWGVDLLKFDGCYCDSLENLADGYKHMSLALNRTGRSIVYSCEWPLYMWPFQKPNYTEIRQYCNHWRNFADIDDSWASIKSILDWTSRNPERIVDVAGPGGWNDPDMLVIGNFGLSWDQQVTQKALWAIMAAPLFMFNDLRHISPQAKALLQDKEVIAINPDPFGKQGYQLRKGDNFEGWERPLFGLAWAVAIINRQEIGGPRSYTIPVASLGEGVACNPACFITQLLPVKRKLGFYNWTSRLKSHINPTGTVLLQLENTMQMSLKDLL
modifications: Synthetic Polypeptide sequence of Variant No. 345 of mature Human GLA
On to B10, for which the “Relative Activity … with Serum” value in data set [1] was “+ (+ = 0.5 to 1.5 relative activity over Rd3BB (SEQ ID NO: 13))”. Further, the “Relative Activity … at pH 4.0” value in data set [2] is “++ (++ = >1.5 to 2.5 relative activity over Rd3BB (SEQ ID NO: 13))”. Further, the “Relative Activity … at pH 8.2” value in data set [3] is given as “+++ (+++ = >2.5 relative activity over Rd3BB (SEQ ID NO: 13))”. In data set [4], the “Relative Activity of GLA Variants After No Challenge (NC)” value is given as “+ (+ = 0.5 to 1.5 relative activity over Rd3BB (SEQ ID NO: 13))”.
